Assay [1] addresses YFPn-SpvC (Salmonella enterica subsp. enterica serovar Typhimurium strain 14028s) (UniProt P0A2M9). As to the kind of experiment: split reporter (BiFC, NanoBiT); BiFC with YFPn and YFPc fusions co-expressed in Arabidopsis epidermal cells by particle bombardment together with p35S-mCherry; fluorescence observed 24-48 h after transformation by confocal microscopy; YFP-positive cells counted among mCherry-positive cells.

In assay [2] the target is YFPc-SpvC (Salmonella enterica subsp. enterica serovar Typhimurium strain 14028s) (UniProt P0A2M9). The assay is described as above.

Consider “YFPc-MPK6 (from UniProt Q39026 1-395) (transformed cells)”, for which, in assay [1], the percent of transformed cells with reconstituted YFP worked out at 34%.
With YFPn-MPK6 (from UniProt Q39026 1-395), in assay [2], the percent of transformed cells with reconstituted YFP came to 18%.
